B2: purified recombinant Flag-tagged SNAP29 (natural protein, human, UniProt O95721 1-258, looked up)
chain: MSAYPKSYNPFDDDGEDEGARPAPWRDARDLPDGPDAPADRQQYLRQEVLRRAEATAASTSRSLALMYESEKVGVASSEELARQRGVLERTEKMVDKMDQDLKISQKHINSIKSVFGGLVNYFKSKPVETPPEQNGTLTSQPNNRLKEAISTSKEQEAKYQASHPNLRKLDDTDPVPRGAGSAMSTDAYPKNPHLRAYHQKIDSNLDELSMGLGRLKDIALGMQTEIEEQDDILDRLTTKVDKLDVNIKSTERKVRQL

Values joined by “and” are separate entries in the source; they are usually repeats but may differ in a detail not shown here. Equal entries are not always repeated.

The target of assay [1] is purified recombinant ATG14 (UniProt Q6ZNE5). The assay is described as follows: SEC-MALS. A general note: SEC sorts molecules by how far they enter the pores of the column.
In assay [2] the target is B2. The assay is described as follows: SEC.
In assay [3] the target is T1, purified recombinant Flag–STX17 (human, UniProt P56962 1-302).
T1 sequence (looked up): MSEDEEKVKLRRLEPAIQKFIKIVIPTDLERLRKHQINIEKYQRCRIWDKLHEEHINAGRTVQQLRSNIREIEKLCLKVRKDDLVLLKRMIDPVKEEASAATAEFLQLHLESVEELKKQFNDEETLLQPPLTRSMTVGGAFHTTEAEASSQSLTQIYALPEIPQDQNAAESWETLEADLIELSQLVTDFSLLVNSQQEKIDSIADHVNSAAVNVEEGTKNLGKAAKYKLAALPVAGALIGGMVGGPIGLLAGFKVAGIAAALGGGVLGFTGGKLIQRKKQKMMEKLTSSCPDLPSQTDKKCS
As to the kind of experiment: SEC.

Consider “purified recombinant ATG14 (from UniProt Q6ZNE5 1-492) (natural protein; other documents disagree on this pair)”, for which the stoichiometry N in assay [1] is 2 and 4.

B1: purified recombinant Flag-tagged VAMP8 (natural protein, human, UniProt Q9BV40 1-100, looked up)
chain: MEEASEGGGNDRVRNLQSEVEGVKNIMTQNVERILARGENLEHLRNKTEDLEATSEHFKTTSQKVARKFWWKNVKMIVLICVIVFIIILFIVLFATGAFS
For the molecule B1, the binding result in assay [2] is “binds”.

For the molecule B2, in assay [3], the binding result is “binds”.

As usually defined, the stoichiometry N is a count of units in the complex or per binding partner.

Values taken from paper PMC4442024 (Nature, 2015).
